The results in this text go back to the supplement of paper PMC10567573.

B1: TRAF3IP2 (parent)
chain: APWNYHYHCPGSPDHQVPYGHDYP
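Further: lentivirally expressed fusions sorted by FACS into six bins by GFP to DsRed ratio, PSI derived from sequencing read proportions per bin multiplied by bin number.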

The variants in the data set derive from B1. The data set is described as follows: protein stability index of a GFP-peptide fusion (GPS, HEK-293T) (PSI 1-6); higher = more stable. The note with it: c terminus: a fixed tail appended.
Regarding APWNYHYHCPGSPDHQVPYGHLYP [D22L], the protein stability index came out at 1.9.

As to APWNYHYHCPGSPDHQVPYGHIYP [D22I], the protein stability index came to 1.16.

In the case of APWNYHYHCPGSPDHQVPYGHYYP [D22Y], the protein stability index was 2.08.

APWNYHYHCPGSPDHQVPYGHWYP [D22W]: the protein stability index was 2.16.

For APWNYHYHCPGSPDHQVPKGHDYP [Y19K], the protein stability index was 2.51.

As to APWNYHYHCPGSPDHQVPFGHDYP [Y19F], the protein stability index came out at 1.87.

Consider APWNYHYHCPGSPDHQVPRGHDYP [Y19R], for which the protein stability index is 1.99.

APWNYHYHCPGSPDHQVPMGHDYP [Y19M]: the protein stability index is 2.23.

In the case of APWNYHYHCPGSPDHQVPCGHDYP [Y19C], the protein stability index came out at 1.91.

As for APWNYHYHCPGSPDHQVPTGHDYP [Y19T], the protein stability index turned out to be 2.85.

In the case of APWNYHYHCPGSPDHQVPQGHDYP [Y19Q], the protein stability index amounted to 3.09.

Take APWNYHYHCPGSPDHQVPNGHDYP [Y19N]: the protein stability index is 2.48.

Consider APWNYHYHCPGSPDHQVPVGHDYP [Y19V], for which the protein stability index came out at 2.7.

In the case of APWNYHYHCPGKPDHQVPYGHDYP [S12K], the protein stability index turned out to be 2.21.

Take APWNYHYHCPGDPDHQVPYGHDYP [S12D]: the protein stability index was determined as 2.49.

As for APWNYHYHCPGVPDHQVPYGHDYP [S12V], the protein stability index is 2.2.

Regarding APWNYHYHCPGEPDHQVPYGHDYP [S12E], the protein stability index is 2.37.

Regarding APWNYHYHCPGWPDHQVPYGHDYP [S12W], the protein stability index amounted to 2.

APWNYHYHCPGCPDHQVPYGHDYP [S12C]: the protein stability index amounted to 2.75.

With APWNYHYHCPGYPDHQVPYGHDYP [S12Y], the protein stability index was 2.21.

As to APWNYHYPCPGSPDHQVPYGHDYP [H8P], the protein stability index is 1.99.

Take APWNYHYMCPGSPDHQVPYGHDYP [H8M]: the protein stability index came to 1.69.

Take APWNYHYKCPGSPDHQVPYGHDYP [H8K]: the protein stability index turned out to be 1.73.

Turning to APWNYHYSCPGSPDHQVPYGHDYP [H8S], the protein stability index was 2.44.

Take APWNYHYYCPGSPDHQVPYGHDYP [H8Y]: the protein stability index is 1.84.

As to APWNYHYQCPGSPDHQVPYGHDYP [H8Q], the protein stability index stood at 2.82.

Regarding APWNYHYTCPGSPDHQVPYGHDYP [H8T], the protein stability index worked out at 2.41.

As for APWNYHYHCPGSPDGQVPYGHDYP [H15G], the protein stability index worked out at 2.73.

Turning to APWNYHYHCPGSPDIQVPYGHDYP [H15I], the protein stability index was 2.61.

In the case of APWNYHYHCPGSPDTQVPYGHDYP [H15T], the protein stability index stood at 1.91.

In the case of APWNYHYHCPGSPDCQVPYGHDYP [H15C], the protein stability index amounted to 1.97.

Regarding APWNYHYHCPGSPDSQVPYGHDYP [H15S], the protein stability index was found to be 2.22.

Take APWNYHYHCPGSPDMQVPYGHDYP [H15M]: the protein stability index came out at 2.02.

Turning to APWNYHYHCPGSPDNQVPYGHDYP [H15N], the protein stability index came out at 2.48.

With APWNYHYHCPGSPDKQVPYGHDYP [H15K], the protein stability index was 2.65.

Take APWNYHYHCPASPDHQVPYGHDYP [G11A]: the protein stability index turned out to be 2.55.

Turning to APWNYHYHCPDSPDHQVPYGHDYP [G11D], the protein stability index was found to be 2.21.

Take APWNYHYHCPLSPDHQVPYGHDYP [G11L]: the protein stability index stood at 2.31.

As to APWNYHYHCPKSPDHQVPYGHDYP [G11K], the protein stability index turned out to be 1.92.

Consider APWNYHYHCPRSPDHQVPYGHDYP [G11R], for which the protein stability index worked out at 2.04.

In the case of APWNYHYHCPHSPDHQVPYGHDYP [G11H], the protein stability index is 2.11.

As to APWNYHYHCPQSPDHQVPYGHDYP [G11Q], the protein stability index amounted to 1.63.

APWNYHYHCPWSPDHQVPYGHDYP [G11W]: the protein stability index amounted to 2.18.

With APWNYHYHCPESPDHQVPYGHDYP [G11E], the protein stability index was found to be 2.06.

For the variant APWNYHYHCPMSPDHQVPYGHDYP [G11M], the protein stability index was 3.15.

On to APWNYHYHCPGSPCHQVPYGHDYP [D14C], for which the protein stability index was 2.49.

Consider APWNYHYHCPGSPTHQVPYGHDYP [D14T], for which the protein stability index is 1.78.

In the case of APWNYHYHCPGSPRHQVPYGHDYP [D14R], the protein stability index turned out to be 1.91.

With APWNYHYHCPGSPYHQVPYGHDYP [D14Y], the protein stability index came to 1.53.

As for APWNYHYHCPGSPMHQVPYGHDYP [D14M], the protein stability index came out at 1.84.

For the variant APWNPHYHCPGSPDHQVPYGHDYP [Y5P], the protein stability index came out at 3.84.

On to APWNLHYHCPGSPDHQVPYGHDYP [Y5L], for which the protein stability index was 3.3.

With APWNMHYHCPGSPDHQVPYGHDYP [Y5M], the protein stability index was determined as 3.

In the case of APWNVHYHCPGSPDHQVPYGHDYP [Y5V], the protein stability index was determined as 3.21.

With APWNTHYHCPGSPDHQVPYGHDYP [Y5T], the protein stability index turned out to be 3.52.

With APWNIHYHCPGSPDHQVPYGHDYP [Y5I], the protein stability index is 3.64.

Take APWNSHYHCPGSPDHQVPYGHDYP [Y5S]: the protein stability index is 3.47.

With APWNRHYHCPGSPDHQVPYGHDYP [Y5R], the protein stability index was found to be 3.04.

Regarding APFNYHYHCPGSPDHQVPYGHDYP [W3F], the protein stability index was 2.22.

Consider APLNYHYHCPGSPDHQVPYGHDYP [W3L], for which the protein stability index is 3.03.

APNNYHYHCPGSPDHQVPYGHDYP [W3N]: the protein stability index was 4.12.

Regarding APHNYHYHCPGSPDHQVPYGHDYP [W3H], the protein stability index worked out at 3.51.

Take APRNYHYHCPGSPDHQVPYGHDYP [W3R]: the protein stability index is 3.72.

In the case of APYNYHYHCPGSPDHQVPYGHDYP [W3Y], the protein stability index amounted to 3.04.

Take APCNYHYHCPGSPDHQVPYGHDYP [W3C]: the protein stability index stood at 4.01.

On to APMNYHYHCPGSPDHQVPYGHDYP [W3M], for which the protein stability index stood at 3.08.

With FPWNYHYHCPGSPDHQVPYGHDYP [A1F], the protein stability index amounted to 2.12.

For the variant HPWNYHYHCPGSPDHQVPYGHDYP [A1H], the protein stability index was 3.12.

On to MPWNYHYHCPGSPDHQVPYGHDYP [A1M], for which the protein stability index is 2.5.

For the variant PPWNYHYHCPGSPDHQVPYGHDYP [A1P], the protein stability index came out at 2.71.

With VPWNYHYHCPGSPDHQVPYGHDYP [A1V], the protein stability index came to 1.71.

For DPWNYHYHCPGSPDHQVPYGHDYP [A1D], the protein stability index worked out at 3.33.

On to SPWNYHYHCPGSPDHQVPYGHDYP [A1S], for which the protein stability index was determined as 2.18.

As for LPWNYHYHCPGSPDHQVPYGHDYP [A1L], the protein stability index turned out to be 2.08.

Take CPWNYHYHCPGSPDHQVPYGHDYP [A1C]: the protein stability index worked out at 2.72.

Turning to IPWNYHYHCPGSPDHQVPYGHDYP [A1I], the protein stability index stood at 1.71.

For the variant APWNYGYHCPGSPDHQVPYGHDYP [H6G], the protein stability index worked out at 2.96.

In the case of APWNYCYHCPGSPDHQVPYGHDYP [H6C], the protein stability index was found to be 3.34.

In the case of APWNYMYHCPGSPDHQVPYGHDYP [H6M], the protein stability index amounted to 2.54.

In the case of APWNYEYHCPGSPDHQVPYGHDYP [H6E], the protein stability index was 4.43.

For the variant APWNYDYHCPGSPDHQVPYGHDYP [H6D], the protein stability index came out at 3.57.

As for APWNYWYHCPGSPDHQVPYGHDYP [H6W], the protein stability index was found to be 2.59.

As to APWNYHYHCPGSPDHQVPYGCDYP [H21C], the protein stability index came to 1.6.

As for APWNYHYHCPGSPDHQVPYGMDYP [H21M], the protein stability index came out at 1.67.

For the variant APWNYHYHCPGSPDHQVPYGQDYP [H21Q], the protein stability index stood at 2.17.

Turning to APWNYHYHCPGSPDHQVPYGNDYP [H21N], the protein stability index is 2.39.

As to APWNYHYHCPGSPDHQVPYGSDYP [H21S], the protein stability index is 2.05.

As for APWNYHYHCPGSPDHQVPYGVDYP [H21V], the protein stability index was found to be 1.54.

APWNYHYHCPGSPDHQVPYGADYP [H21A]: the protein stability index was 2.22.

Regarding APWNYHYHCPGSPDHQVPYGPDYP [H21P], the protein stability index was 2.48.

As for APWNYHYHCPGSPDHQVPYGEDYP [H21E], the protein stability index turned out to be 2.55.

For APWNYHYHCPGSPDHQVPYGGDYP [H21G], the protein stability index came out at 1.91.

For APWNYHYHCPGSPDHQVPYGYDYP [H21Y], the protein stability index is 2.35.

As for APWEYHYHCPGSPDHQVPYGHDYP [N4E], the protein stability index turned out to be 3.39.
